The target in the experiment is FcRn (human) (UniProt P55899). The experiment is described as follows: Lumit FcRn binding immunoassay (competition); pH 6.0.
Sequence of FcRn (human) (P55899 24-297, chain 1 of 2): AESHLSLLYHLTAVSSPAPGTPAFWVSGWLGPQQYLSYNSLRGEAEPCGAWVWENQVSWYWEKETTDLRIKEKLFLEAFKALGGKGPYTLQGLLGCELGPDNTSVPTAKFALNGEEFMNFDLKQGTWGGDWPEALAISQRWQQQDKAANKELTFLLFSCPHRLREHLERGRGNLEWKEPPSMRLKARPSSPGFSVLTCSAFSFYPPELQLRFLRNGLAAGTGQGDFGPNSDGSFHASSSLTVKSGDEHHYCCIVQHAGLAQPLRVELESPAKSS
Sequence of FcRn (human) (main, as listed by the source, chain 2 of 2): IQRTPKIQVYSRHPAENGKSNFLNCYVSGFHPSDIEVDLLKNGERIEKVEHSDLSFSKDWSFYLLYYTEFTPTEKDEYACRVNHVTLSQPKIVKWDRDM

hIgG1: the IC50 amounted to 0.0128 µM.

What is called IC50 is the concentration needed to halve the response being measured.

These data come from US20240400640A1.
